Drawing on article PMC4978566, this text covers stoichiometry N for one substance.

The target in the assay is A/California/04/2009 H1 (influenza A virus A/California/04/2009) (UniProt C3W5S1). Nature of the assay: crystal structure.

As for “A/California/04/2009 H1 (from UniProt C3W5S1 18-520) (natural protein)”, the stoichiometry N – broadly, the number of molecules, sites or subunits per partner or assembly – was determined as 2.
